Assay results published in article PMC8637272.

Test system: enolase (ENO) (Mycoplasma gallisepticum S6)
Experiment: EMSA
Conditions: EMSA: 20 mM carbonate buffer pH 9.8, 6% glycerol, 2.5 pmol FAM-DNA, 10 min 37 C, 6% acrylamide gel at 10 C. AFM: 20 mM Tris-HCl pH 7.5 (Methods; Fig 6 legend …)

Substance | Kd (Hill n 2.7 +/- 0.8) [nM] | Kd (Hill n 3.1 +/- 0.6) [nM]
Pgapd | 1100 | 
Peno |  | 1000
